Results as given in publication PMC4220489 (Nature Communications, 2014).

T1: IL-12 subunit beta (p40), as in the recombinant human IL-23 of the crystal structure (human, UniProt P29460 23-328, C-mannosylated Trp319; N-linked glycans limited by kifunensine and trimmed with EndoH)
T1 construct: signal peptide in the construct; IL-12 subunit beta (p40), human, residues 1-328, cDNA as NCBI NM_002187.2 (silent codon change at Asn248); The p40 chain of m3, written alone for the pairs of the crystal structure; also called IL-23 p40; source: HEK-293T, co-transfected with p19-His, purified as IL-23 (Talon IMAC, SEC)
T1 sequence (looked up): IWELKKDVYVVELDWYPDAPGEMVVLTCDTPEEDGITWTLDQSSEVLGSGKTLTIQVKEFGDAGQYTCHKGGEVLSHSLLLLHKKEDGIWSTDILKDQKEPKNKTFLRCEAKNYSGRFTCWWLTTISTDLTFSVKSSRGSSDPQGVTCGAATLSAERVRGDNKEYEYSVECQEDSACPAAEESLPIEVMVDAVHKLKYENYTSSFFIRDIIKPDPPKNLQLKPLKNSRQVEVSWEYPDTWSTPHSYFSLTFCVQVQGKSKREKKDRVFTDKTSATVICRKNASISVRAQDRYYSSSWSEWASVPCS

T2: recombinant human IL-23 (p19-His co-expressed with p40 in HEK-293T) (human, UniProt Q9NPF7 20-189; P29460 23-328, N-linked glycans limited by kifunensine and trimmed with EndoH | C-mannosylated Trp319; N-linked glycans limited by kifunensine and trimmed with EndoH)
T2 chain 1: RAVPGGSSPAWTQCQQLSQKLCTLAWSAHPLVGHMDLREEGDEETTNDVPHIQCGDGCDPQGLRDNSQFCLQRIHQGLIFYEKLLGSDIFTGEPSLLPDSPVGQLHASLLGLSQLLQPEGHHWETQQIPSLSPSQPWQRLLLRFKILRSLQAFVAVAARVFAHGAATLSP
T2 chain 2: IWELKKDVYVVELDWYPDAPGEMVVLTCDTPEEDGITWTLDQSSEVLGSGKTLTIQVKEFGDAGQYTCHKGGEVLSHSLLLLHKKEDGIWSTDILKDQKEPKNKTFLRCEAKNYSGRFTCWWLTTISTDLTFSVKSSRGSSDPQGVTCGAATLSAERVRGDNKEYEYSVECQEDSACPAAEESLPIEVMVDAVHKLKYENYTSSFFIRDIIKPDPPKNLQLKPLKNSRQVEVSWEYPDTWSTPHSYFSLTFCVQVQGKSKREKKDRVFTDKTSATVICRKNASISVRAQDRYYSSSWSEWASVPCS


How the values were obtained:
[1] = molecular target: T1, IL-12 subunit beta (p40), as in the …; assay: crystal structure; IL-23:MA12_B2fC complex, two crystal forms (PEG 3,350 with Na2SO4 or potassium formate), molecular replacement with PDB 3DUH; details: both partners purified
[2] = molecular target: T2, recombinant human IL-23 (p19-His …); assay: SPR
[3] = molecular target: recombinant human IL-23 (p19-His co-expressed with p40 in HEK-293T) (human) (UniProt Q9NPF7); assay: ITC; VP-ITC, 30 °C, 20 mM Hepes, 150 mM NaCl, pH 7.4; IL-23 4.9 μM in the cell, MA12 53.2 μM in the syringe; one binding site model; apparent
[4] = molecular target: T2, recombinant human IL-23 (p19-His …); assay: SPR

Row | binding result [1] | koff [2] [s⁻¹] | Kd [3] [nM] | stoichiometry N [3] | Kd [4] [nM] | Binder
1 | binds |  |  |  |  | IL-23 subunit alpha (p19), as in the recombinant human IL-23 of the crystal structure (natural protein, UniProt Q9NPF7 20-189, looked up, N-linked glycans limited by kifunensine and trimmed with EndoH, signal peptide in the construct; IL-23 subunit alpha (p19), human, residues 1-189, cDNA as NCBI NM_016584.2; residue numbers as in UniProt; The p19 chain of m3, written alone for the pairs of the crystal structure; also called IL-23 p19; source: HEK-293T, co-transfected with p40, purified as IL-23 (Talon IMAC, SEC)) RAVPGGSSPAWTQCQQLSQKLCTLAWSAHPLVGHMDLREEGDEETTNDVPHIQCGDGCDPQGLRDNSQFCLQRIHQGLIFYEKLLGSDIFTGEPSLLPDSPVGQLHASLLGLSQLLQPEGHHWETQQIPSLSPSQPWQRLLLRFKILRSLQAFVAVAARVFAHGAATLSP
2 |  | 0.000122 | 0.35 | 1 | 0.463 | MA12_B2fC Alphabody (His-tag removed, cysteine blocked) (designed binder, free cysteine blocked with iodoacetamide) SIQEIQKEIAQIQAVIAGIQKYIYTMTGGSGGGSGGGSGGGSGMSIEEIQKQIAAIQCQIAAIQKQIYAMTGGSGGGSGGGSGGGSGMSIEEIQKQIAAIQEQILAIYKQIMAMVT
